Measured values taken from a protein production outcome set (Wang et al. 2014).

assay: label from the status in PepcDB records

Sequence | protein production
MLISIAFLLVLYLLNYSSFRMLKSFLTLKKISQYAYLWFFILLSIGEAAFVFYRNIMPSHLFVLTSACSFVSFIIFILSLSFYGFSYSIEKIDFLHSRRKSLKNFLKLGFYLALLGYFWRGFYEGLARPKIKETPIYLDKLDKELKIILLTDMHVGSLLQKDFVDYIVEEVNQKEVDMVLIGGDLVDESIEKVKSFLLPLNNLKSTHGTFYVPGNHEYYHGIEPILSFLDTLNLTILGNECVHLGGINLCGVYDYFARKRQNFAPDIDKALKKRNESKPTILLAHQPKQIRSLKESHSVDLVLSGHTHAGQIFPFSLLVKLAQTYLHGLYKHSPTTQIYVSSGAGYWGIPLRFLAPSEIAYLRLLPKNQA | failed
MLITSSLLPPSGTWIFNINSLFCSLSIKNALSNLPLMRFCNSSTTQHTSTLVISLFIISPENIIFFFRIFYYCDNMEREEFLKYLRQGKYDKLAKLINSYSDILSFLDELFTSNKKDDVRRALLVLKRLDNEVIERYLYYILLNLNEKRIIAKEAEEILKKITNKESVEEAILEIAKKPLDEKIVYLFLQNMKEGNIFFRAILEHTKSKNMEESIKILLKNYNSEMILKILANKLYSSEKDERELTINILLNIVDSLTDEQKNILRGHLSVSLLGDEDKKLYRKFKQLFEKLDIPAELSDEQIKSLLKSHGKTTLNIILRENIKLPANFYNREFLKDFLYTGDEEKQFVGVKLISLKKDSKKKVDLLFRFLNYGYGKAKTAAIRELKKIAQNNNELKKYIENKTLMYAKKMNLGLKISSLRILKEFAKKEHLEFLINEHKRLKELVYKLEEEKFMGGFRHLLMMEEEIRKCNVAMRLIEEIVAEICLKNDIHYNDLKISEKLGYEFYRTMELIGVKNLNLIDIHEFLEDVKRDGELITYLSGIVINNNKIDDNLAKKILEVTEKAEMEDKDVLNANKIMIYASLNRVDKIGEIINMAEGYYSKLAFINGVKKFIDEKLLDEEKINLLIPKIAEMIYSTKKLRLMALEFFKNYPNELVLPILINEIGNYRGEDKLMIDVISNVIFKYPNNIHSIRELLNTDKRNSALKILLKVSEKRPELLEDFIYLLAGMYSSANEEDKKLIKKILKNITTEEQKLILKPIIGDL | failed
MLITVYCVRRDLTEVTFSLQVNPDFELSNFRVLCELESGVPAEEAQIVYMEQLLTDDHCSLGSYGLKDGDMVVLLQKDNVGLRTPGRTP | not failed
MLKALKKIFGKADGTQPQSGSSPVPQGPAGATAKGTAPTGEKPTEKRPRKPRPPRADNESGAPRAAEKAEKAEKPAKPAGKEGRDAKPRTDKPRRERKPKPVDNWKLEDFVVEPQEGKTRFHDFNLAPSLMHAIHDLGFPYCTPIQAQVLGFTLRGQDAIGRAQTGTGKTAAFLISIITQLLQTPPPKERYMGEPRALIIAPTRELVVQIAKDAAALTKYTGLNVMTFVGGMDFDKQLKQLEARFCDILVATPGRLLDFNQRGEVHLDMVEVMVLDEADRMLDMGFIPQVRQIIRQTPHKGERQTLLFSATFTDDVMNLAKQWTVDPAIVEIEPENVASDTVEQHVYAVAGSDKYKLLYNLVAQNNWERVMVFANRKDEVRRIEERLTKDGISAAQMSGDVPQHKRIRTLEGFREGKIRVLVATDVAGRGIHIDGISHVINFTLPEDPDDYVHRIGRTGRAGASGTSISFAGEDDAFALPPIEELLGRKITCEMPPAELLKPVPRKH | failed
MLKANVFCAGPVEALILDWAGTTIDFGSLAPVYAFMELFKQEGIEVTQAEAREPMGTEKSEHIRRMLGNSRIANAWLSIKGQASNEEDIKRLYDLFAPIQTRIVAQRSQLIPGWKEVFDKLIAQGIKVGGNTGYGPGMMAPALIAAKEQGYTPASTVFATDVVRGRPFPDMALKVALELEVGHVNGCIKVDDTLPGIEEGLRAGMWTVGVSCSGNEVGLDREDWQALSSDEQQSYRQHAEQRLFNAGAHYVIDSVADLETVITDVNRRLARGEKP | not failed
MLKERILSAIAMIIAVLAGIFLLSPLPFTLILAAVITAAIWEWAQFAGFKRSLSRAIITFVTICLFILLIFANTHYIRAGRFLTDQTIPLLFISCCWWLIAFGLVISYPKSASLWSKSITAKFIFGFCTLIPFFIAILALRFNNYAFNQFQGAYLLLYVCLLVWCADSGAYFFGRAFGKRKLAAKVSPSKSWEGALGGLITSCVMALLFIKLTPNNIFGREFETLPFIIVSVATVAVSSLGDLAESMFKRQANIKDSSNLIPGHGGILDRIDSLTAAIPFFATLFFFVL | failed
MLKFLKNWTLPIAMLVGAVGYPVFISFSFLTPILIFTMLLLTFCKVSPRDLKPKPLHLWLLLIQIFGSLIVYLLLYRFNKIVAEGAMVCVICPTATAAAVITSKLGGSAASLTTYTLIANIGAAIAVPILFPLIEANPGISFIDAFLVILSKVFPLLICPFLAAWFLQRFIPKVHKVLLGYHELAFYLWGISLAIVTAQTLYSLINDPADGLTEIMIAVVALIACCLQFFLGKTLGSIYNDRISGGQALGQKNTILAIWMAHTYLNPLSAVGPGSYVLWQNIINSWQLWKKRKKESEKCSNNVSG | failed
MLKFLSVRVEDHIAVATLNHAPANAMSSQVMHDVTELIDQVEKDDNIRVVVIHGEGRFFSAGADIKEFTSVTEAKQATELAQLGQVTFERVEKCSKPVIAAIHGAALGGGLEFAMSCHMRFATESAKLGLPELTLGLIPGFAGTQRLPRYVGKAKACEMMLTSTPITGAEALKWGLVNGVFAEETFLDDTLKVAKQIAGKSPATARAVLELLQTTKSSHYYEGVQREAQIFGEVFTSEDGREGVAAFLEKRKPSFSGR | not failed
MLKFRSHTKELLDGDAIPEKDLFQNLKELDTINKLLGGYKISLSAIDELIKNAAAYKLVDIGCGGGDTLKYMYHWAKRTDKNLSLVGIDIKPVCIEYAKTNTADLPIQYICDDYKQAFNHIEKIDFIHACLFCHHLSEEQLVELIQFALINKTTLVVNDLERNPIAYYSIKWLTAIFSHSYLVKNDAPLSVARGFKKKEWEALLKKAGAATYSVKNKWAFRHQVIVYGNQ | failed
MLKHCGEFHIALKHLQLALLYTYPSTFSELQVKFQIAHLYEVQNKHKAAKDGYEFLLNEKNISLELKADVYRQLGWMYHCVECLGEKKEREANALNFLQKSIEADPKSGQSLYLLGRCYAGINKVHDAFLAYRNSVEKSEGNADTWCSIGVLYQQQNQPTDALQAYICAVQLDKDHKAAWTNLGILYESCGQLRDAYACYLNATKQISFQKSSLIRKKQAIRMKKDTIGLSKGLSQRITFLEGQLSQAPLPSITSKRRQLCSIEEAWNLPISLEMNSRQQQTAQMLPRQVTKQSPVQGPPPPYPHSQLSQSPIPSKRIKEDGTSQQEVTQNNSQTSAQNLINISESLNQRNFNAMPESNKSSEQSVLDTFDDISNDIYKQNESIKLERLSQDALSNNEDSRHDFIGGDNADISTTFKIQMDSKQLMVAVKLLPIDEPPVHCTILQVNAPPPSPPDCPPQKLTRDQLLPPTPSVHLENKKHAFSPQLQEFCLKHPIAVVRGLAGVLKLDLGLFSTKTLVEANPDHSVEVRTQVHQSPDENWDTSQGKRVWACISHRSHTTIAKYAQYQASSFQDSLKLILPQDESDKGFPGSQAMSDSDSKDSVSNSNIVLKRKKHKINSKMLRFGTNVDLSDEKKWKPQLTELQKLPAFARVISAANMLSHVGHVILGMNTVQLYMKVPGSRTPGHQENNNFCSININIGPGDCEWFAVPDAYWGGVHNLCEKNNISYLHGSWWPVLEDLYKENIPVYRFIQKPGDLVWVNAGCVHWVQSIGWCNNIAWNVGPLTARQYSLAIERYEWNKVQAFKSIVPMVHLSWNLARNIKVSDTKLFELIKMCLLQTLKNVLHIQEYVKSKGVEIRFNGRGKNEASHYCGQCEVEVFNVLFIKEQEKRHVVHCLSCALKLSPSLQGIVCLEEYRLSELQRVYDSFTLHRTQGLAYTQ | failed
MLKIRCQACSTILEASYKISYNAQDMKYKNLPVYEQKDRILEMLEHNQVIVVESPTGSGKTTQLPVILHEAGYSRSGMIGVTQPRRIAALSVSEFISKQLKEPMPGLVGYKMRFEDKTSNDTKIKIMTDGILLQELKLDPWLSKYSVILVDEAHERSLNIDFILGLLKRIITERKDFKVIISSATINTDLFSMYFDGCPVIKIDAITYPVTLIFDPPAVKASTDTQEAETALMDKIASIVGRILSEGRSGAILVFLPGERAIKDCIERLSKEPWYRKLFILPLYGRLSKEEQERVFKSPPFGKKKIVISTNIAETSITINDIAAVIDSGLAKLNFYNPFTFTSSLDETLISRASCNQRRGRAGRTQEGVCYRLYTRKDFETRQLYTLEEIYRTDLSEVVMRMAELGILDFENFDFISPPGKKGIIGAIDTLNMLDALESDRSLSSIGKMMCLFPLAPRQSRIIVEAITRYPDLVEEVLIAAAFLSARSPVIFPEGEEIEARKAHALFDEPLGDFASFLKVFRMYSQALDKERFCKIHYLDDRVMAEIANIKEQLELIVSDMGVPILSGGKMEHYLTAIAKGMIQFVCSAQGRDSYRSLTTEKIFIHPGSCMYKEKEQFIVAGEIVRTSRMYAMSVSPLSKKIIEEVAPALLERKDKRAKKEKDEHRADQKEEKKKPEEESVLIEGTRYLIKKIKGKKHLILPWKEFKLTAEAVFKKYSEENQNGALEQLKGLRGKIEINKSELLSGEKMDLILNVVNNFNIEQIEKTEDEKHFDRNKNYFIEEDLEALVNSLNLLFRTTIAKKTTKQLGFITLFCDGTGHFWFKTSRGFHTALHESLVSLQSLIDLAGENFNEDQKIIVRTIYGKMNKMI | failed
MLKKEYLKNPYLVLFAMIVLAYVFSVFCRFYWVWWASEFNEYFFNNQLMIISNDGYAFAEGARDMIAGFHQPNDLSYYGSSLSTLTYWLYKITPFSFESIILYMSTFLSSLVVIPIILLANEYKRPLMGFVAALLASVANSYYNRTMSGYYDTDMLVIVLPMFILFFMVRMILKKDFFSLIALPLFIGIYLWWYPSSYTLNVALIGLFLIYTLIFHRKEKIFYIAVILSSLTLSNIAWFYQSAIIVILFALFALEQKRLNFMIIGILGSATLIFLILSGGVDPILYQLKFYIFRSDESANLTQGFMYFNVNQTIQEVENVDFSEFMRRISGSEIVFLFSLFGFVWLLRKHKSMIMALPILVLGFLALKGGLRFTIYSVPVMALGFGFLLSEFKAILVKKYSQLTSNVCIVFATILTLAPVFIHIYNYKAPTVFSQNEASLLNQLKNIANREDYVVTWWDYGYPVRYYSDVKTLVDGGKHLGKDNFFPSFSLSKDEQAAANMARLSVEYTEKSFYAPQNDILKSDILQAMMKDYNQSNVDLFLASLSKPDFKIDTPKTRDIYLYMPARMSLIFSTVASFSFINLDTGVLDKPFTFSTAYPLDVKNGEIYLSNGVVLSDDFRSFKIGDNVVSVNSIVEINSIKQGEYKITPIDDKAQFYIFYLKDSAIPYAQFILMDKTMFNSAYVQMFFLGNYDKNLFDLVINSRDAKVFKLKI | failed
MLKKVIGILVIIAIISVGFFQKEAWLDAIKAGGMFSVLFSMLLIAADVFFPIVPFALIAALNGAVFGTANGIWITLTGSMLGTILLFFLARYSFRDWARKKVQAYPAIQSYEASFNKNAFTAVLLGRLIPVIPSLVMNVICGLSQVRWHVFFFASLIGKIPNIVVVTIAGANFTSNKLLSISIYGTYILIIMLVIYKKFPHLLKVPKK | failed
MLKKVQEHLPRQLLPAPDAITAFCHLIANWSRSELVLALTVDQQGNRAQIITTTSTKFPNLEIIAPWRDLVQGTVIDVLPFLKLPSIFFCLLSKVERIVYIPCGEPEKWCQGLLLVNPVEEPLQQLAEQKGYIAALYRQLLIHHRQSQNSFIFEAQFQDIFDTVPLGLVLIKGDSSTAMVNSYAAQWLQLPPGSHPVQIVAEHMKQGWERCDNCDELVNLFQGLAANANFSAQGECRRGEKTFLIDTHPVRGDSRLGRVWIFSDISDMRQREQALLALAWLDPLTGAFNRRFLLSRVEAYESQAATGEALLTVMIFDIDHFKRINDTYGHDQGDVVLRTLAARAKQVLESCQDGILVRWGGEEFVLLFFVAYEDQAKAVAEELCSVVRSQPVELTDQYSLSVTISLGVTLFRGGEQVLSDSIPRADQALYEAKHGGRDRWVWA | failed
